Assay results taken from patent US20250066499A1 (SUNSHINE GUOJIAN PHARMACEUTICAL SHANGHAI, published 2025).
Where a chain is given by its changes, count along the chain named.

Tests used:
CD73-ND-P134A = biological target: T1, CD73-ND-P134A (human, UniProt P21589 27-317); assay: ELISA; decline multiple of EC50 against CD73-ND
T1 construct: Alanine mutant of CD73-ND
T1 sequence: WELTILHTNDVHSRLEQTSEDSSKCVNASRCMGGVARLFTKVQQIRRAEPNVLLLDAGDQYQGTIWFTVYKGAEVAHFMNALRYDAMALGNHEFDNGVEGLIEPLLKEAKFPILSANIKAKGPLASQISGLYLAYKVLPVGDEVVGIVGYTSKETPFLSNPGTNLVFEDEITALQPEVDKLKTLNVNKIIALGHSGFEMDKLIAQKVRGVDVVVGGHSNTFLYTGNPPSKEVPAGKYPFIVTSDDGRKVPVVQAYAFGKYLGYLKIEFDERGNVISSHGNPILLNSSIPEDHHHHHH
Method: (§1) The ELISA plates were coated with SA protein diluted to 1.5 μg/mL in coating buffer (50 mM carbonate coating buffer, pH 9.6) and incubated overnight at 4° C. The supernatant was discarded, and the plates were washed three times with PBST. Then, 5% skimmed milk powder prepared with PBS was added for blocking and the plates were incubated for 2 h at 37° C. After washing the plates once with PBST, CD73-biotin protein (prepared by biotinylating CD73-His protein according to the EZ-Link NHS-Biotin Reagent instructions) was diluted to 0.5 μg/mL and added at 100 μL/well for incubation at room temperature for 1 h. The plates were washed three times with PBST, and the prepared murine-derived monoclonal antibodies against human CD73 were serially diluted with 1% BSA buffer prepared with PBST and added to the ELISA plates at 100 μl/well. The plates were incubated at 37° C. for 1 h. After washing the plates three times with PBST, HRP-labeled goat anti-mouse IgG secondary antibody was added and the plates were incubated for 30 min at 37° C. After washing the plates three times with PBST, the residual droplets were patted dry on absorbent paper as much as possible. Then, 100 μl of TMB color developing solution was added to each well, and the plates were incubated in the dark at room temperature for 5 min for color development. Subsequently, 50 μl of 2M H₂SO₄ stop solution was added to each well to terminate the substrate reaction. The OD values were read at 450 nm using a multimode microplate reader to analyze the binding ability of the tested antibodies to the target antigen human CD73-His.
(§2) Referring to the experimental method in Example 3, the affinity of 48A11-HuV33 for various mutant proteins of CD73-ND was determined. The SA protein was diluted to 1 μg/mL for coating the ELISA plates, and the biotinylated CD73 protein (CD73-biotin) was used at a concentration of 0.1 μg/mL.

CD73-ND-L133A = biological target: T2, CD73-ND-L133A (human, UniProt P21589 27-317); assay: ELISA; decline multiple of EC50 against CD73-ND
T2 construct: Alanine mutant of CD73-ND
T2 sequence: T1 sequence with L133A, A134P
Method: as §1, §2

CD73-ND-Y132A = biological target: T3, CD73-ND-Y132A (human, UniProt P21589 27-317); assay: ELISA; decline multiple of EC50 against CD73-ND
T3 construct: Alanine mutant of CD73-ND
T3 sequence: T1 sequence with Y132A, A134P
Method: as §1, §2

CD73-ND-K136A = biological target: T4, CD73-ND-K136A (human, UniProt P21589 27-317); assay: ELISA; decline multiple of EC50 against CD73-ND
T4 construct: Alanine mutant of CD73-ND
T4 sequence: T1 sequence with A134P, K136A
Method: as §1, §2

CD73-ND-his = biological target: T5, CD73-ND-his (human, UniProt P21589 27-317); assay: ELISA, biotinylated antigen on streptavidin plate
T5 construct: Biotinylated and captured on streptavidin in the ELISA
T5 sequence: T1 sequence with A134P
Method: as §1, §2

CD73-ND-D142A = biological target: T6, CD73-ND-D142A (human, UniProt P21589 27-317); assay: ELISA, biotinylated antigen on streptavidin plate
T6 construct: Alanine mutant of CD73-ND
T6 sequence: T1 sequence with A134P, D142A
Method: as §1, §2

B1: 48A11-HuV33 (antibody, human IgG4, V domains shown)
VH: QVQLVQSGAEVKKPGASVKVSCKASGYTFTSYWMHWVRQAPGQGLEWIGEINPSIGRTNYNEKFKSRVTLTRDTSTSTAYMELSSLRSEDTAVYYCARRVYGTMDYWGQGTLVTVSS
VL: DIQMTQSPSSLSASVGDRVTITCKASQDINSYLSWFQQKPGKSPKLLIYRANIWVDGVPSRFSGSGSGQDYTFTISSLQPEDIATYYCLQYDELYTFGQGTKVEIK
notes: Humanized
Q: B1 was tested. Which “Ratio(EC50)” value (CD73-ND-P134A) did it give?
A: 1.3 fold

Q: What about the “Ratio(EC50)” value (CD73-ND-L133A) of the same binder?
A: 169 fold

Q: What about the “Ratio(EC50)” value (CD73-ND-Y132A) of the same binder?
A: 69.2 fold

Q: What about the “Ratio(EC50)” value (CD73-ND-K136A) of the same binder?
A: 1 fold

Q: What about the EC50 (CD73-ND-his) of the same binder?
A: 0.178 nM

Q: What about the EC50 (CD73-ND-D142A) of the same binder?
A: 0.344 nM
